Assay results published in US20220119492A1 (MEDIKINE, published 2022).
Bridge positions count the residues as written; N and C are the ends. Ends that are not written are not given here.

T1: human IL-2Rβ (CD122 protein, Fc Tag) (27-239) (human, UniProt P14784 27-239)
T1 construct: range 27-239; Bought protein; also called hu-IL-2Rβ subunit; IL-2Rβ subunit; not shown: Fc tag of the bought protein
T1 sequence (looked up): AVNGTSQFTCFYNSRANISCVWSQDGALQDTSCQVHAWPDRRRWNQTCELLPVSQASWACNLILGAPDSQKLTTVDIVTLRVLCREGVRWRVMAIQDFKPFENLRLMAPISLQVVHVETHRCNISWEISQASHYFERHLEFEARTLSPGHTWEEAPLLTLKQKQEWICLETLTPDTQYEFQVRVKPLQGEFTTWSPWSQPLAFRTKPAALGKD


Target: T1, human IL-2Rβ (CD122 protein, Fc Tag) …
Assay: phage ELISA competition
Summary of the method: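 In this competitive binding ELISA, test ligands compete with a phage tracer for human IL-2Rβ-Fc, and IC50 is calculated from the absorbance signal over the ligand dilution series. A 50 μL volume of phage tracer was added without washing and left for 45 min at 4° C. TMB was used to detect bound phage for 1 to 15 min at 25° C, after which stop solution was added and absorbance was read at 450 nm.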

Binder | IC50
AQVWYPCWLAKVGELCDLDQWN (disulfide 7-16 (inferred)) [SEQ ID NO 2786] | < 100 µM
ERRWYPCWLASVGELCDLDMGD [SEQ ID NO 2791] | < 100 µM
MFRYYPCWIASIGELCDLEWGV (disulfide 7-16 (inferred)) [SEQ ID NO 2790] | < 100 µM
WEKLQNWYPCWIAQMGELCDLE [SEQ ID NO 2800] | < 100 µM
WWPCEIAQIGELCDLEWVRHAE (disulfide 4-13 (inferred)) [SEQ ID NO 2806] | < 100 µM
WYPCWVAQLGELCDLE [SEQ ID NO 2792] | < 100 µM
WYPCWVAKLGELCDLE [SEQ ID NO 2802] | < 100 µM
TNGVLDWWPCWMAQVGELCDLD [SEQ ID NO 2801] | < 100 µM
EWFHDCFLAKVGDLCDLFLW [SEQ ID NO 2811] | < 100 µM
PTLITWYDCLFAEVGELCDM [SEQ ID NO 2784] | < 100 µM
EGHWYPCWIAQLGELCDLDW [SEQ ID NO 2798] | < 100 µM
RWDYWPCYIAQVGELCDLEVYE [SEQ ID NO 2793] | < 100 µM
WWPCDFAQIGELCDLGPRFTGE [SEQ ID NO 2807] | < 100 µM
EISNWFLDCMFADVGDLCDL [SEQ ID NO 2785] | < 100 µM
AYYPCELAQLGELCDLYNI [SEQ ID NO 2803] | < 100 µM
MGDSSSWFPCWMAQLGELCDME [SEQ ID NO 2789] | < 100 µM
WWPCWIADLGELCDLEGPPRGR (disulfide 4-13 (inferred)) [SEQ ID NO 2783] | < 100 µM
HRWYPCWLAHLGELCDLDPMS [SEQ ID NO 2796] | < 100 µM
NDHTAWWPCYFAQVGDLCDLV [SEQ ID NO 2805] | < 100 µM
WFPCWMAKVGDLCDVDEHQDPS [SEQ ID NO 2788] | < 100 µM
WWPCWIAQVGELCDLEEESRES [SEQ ID NO 2781] | < 100 µM
KWAWNPCYIARLGELCDLVEPE [SEQ ID NO 2782] | < 100 µM
SWHAETWYPCWLAQVGELCDLD [SEQ ID NO 2810] | < 100 µM
FGGKMDWYPCWIANLGELCDLK [SEQ ID NO 2787] | < 100 µM
QNASKGWYPCWIAHVGELCDWD [SEQ ID NO 2795] | < 100 µM
RDWWLPCEFALIGELCDLERSW [SEQ ID NO 2808] | < 100 µM
SGKTQMWNPCYVAKVGELCDLV [SEQ ID NO 2812] | < 100 µM
SLAHRSWYPCWLAQVGELCDLD [SEQ ID NO 2794] | < 100 µM
FYPCWIAFVGELCDLE [SEQ ID NO 2797] | < 100 µM
WTGWSAFYPCSIANLGELCDLD [SEQ ID NO 2799] | < 100 µM

The next lines start with the values.

IC50 | Binder
< 100 µM | GRYPDCYIAHVGELCEFYDG [SEQ ID NO 2842]
< 100 µM | WYPCWMAKVGELCDME [SEQ ID NO 2824]
< 100 µM | LVYYDCYMAQVGELCDLPSL (disulfide 6-15 (inferred)) [SEQ ID NO 2844]
< 100 µM | RGVYFPCWLAKVGDLCDSDEF [SEQ ID NO 2819]
< 100 µM | VVCYACDIAHVGELCDLTCR [SEQ ID NO 2838]
< 100 µM | DKAGPNFYPCWLAHVGELCDQA [SEQ ID NO 2813]
< 100 µM | TPWYDCYIANVGDLCDFASA [SEQ ID NO 2839]
< 100 µM | HRGWVGWYPCEYALPGQLCDLE [SEQ ID NO 2831]
< 100 µM | WEHEFTWYPCWIAQVGELCDMD [SEQ ID NO 2830]
< 100 µM | WWPCEWARIGELCDLE (disulfide 4-13 (inferred)) [SEQ ID NO 2816]
< 100 µM | KGSSWFPCYFAQVGDLCDLY (disulfide 8-17 (inferred)) [SEQ ID NO 2817]
< 100 µM | KWFHDCFLAKVGDLCDLFLW [SEQ ID NO 2864]
< 100 µM | GGYYDCLIAEVGELCDMPGQ [SEQ ID NO 2837]
< 100 µM | RYVPDCLKAQVGDLCDFFAW [SEQ ID NO 2822]
< 100 µM | WLPCWIAKIGDLCDLD [SEQ ID NO 2828]
< 100 µM | RVRRHSWWPCEIAVVGELCDLE [SEQ ID NO 2833]

IC50 | Binder
< 100 µM | WYPCWLAQVGELCDRE (disulfide 4-13 (inferred)) [SEQ ID NO 2818]
< 100 µM | CYMHDCFMAQVGDLCDRFIS (not fully specified (bridges); also: disulfide between two of the three cysteines, pairing not given here) [SEQ ID NO 2827]
< 100 µM | WQIFDCYLAQVGELCDLQDT (disulfide 6-15 (inferred)) [SEQ ID NO 2841]
< 100 µM | LPFQDCYIAQVGELCDLPGT [SEQ ID NO 2835]
< 100 µM | WYPCWLAQLGELCDQDWDTPS [SEQ ID NO 2832]
< 100 µM | QITDSGWYPCWVAKVGELCDMD (disulfide 10-19 (inferred)) [SEQ ID NO 2825]
< 100 µM | DGWWPCWIAQVGELCDLEDPV [SEQ ID NO 2834]
< 100 µM | WFPCWLAKVGELCDRDDLAGPS [SEQ ID NO 2815]
< 100 µM | RAWWWPCELAQVGELCDLEPSS [SEQ ID NO 2820]
< 100 µM | RWMFDCLFARVGELCDIRPW (disulfide 6-15 (inferred)) [SEQ ID NO 2836]
< 100 µM | YRWWYPCDIAQVGELCDLDYLL [SEQ ID NO 2826]
< 100 µM | WWPCYLAQIGELCDLV [SEQ ID NO 2823]
< 100 µM | LESLDCFFARIGDLCEIWDV [SEQ ID NO 2840]
< 100 µM | AGFRGRWWPCEYAQVGELCDLE [SEQ ID NO 2814]
< 100 µM | SRVWHPCWLARVGELCDLEVSD [SEQ ID NO 2829]
< 100 µM | WYPCWLAKVGELCDQE [SEQ ID NO 2821]
